Laboratory results taken from patent US20100184134A1 (SUTRO BIOPHARMA, published 2010).
Positions count from the first letter of the chain named. Names and notes keep the numbering of the source.

Tests used:
[1] = molecular target: T1, E. coli PheT subunit of phenylalanyl-tRNA synthetase (E. coli, UniProt P07395 1-795); assay: IMAC pull-down of cell-free produced PheRS(A294G)
T1 construct: also called PheT domain
T1 sequence: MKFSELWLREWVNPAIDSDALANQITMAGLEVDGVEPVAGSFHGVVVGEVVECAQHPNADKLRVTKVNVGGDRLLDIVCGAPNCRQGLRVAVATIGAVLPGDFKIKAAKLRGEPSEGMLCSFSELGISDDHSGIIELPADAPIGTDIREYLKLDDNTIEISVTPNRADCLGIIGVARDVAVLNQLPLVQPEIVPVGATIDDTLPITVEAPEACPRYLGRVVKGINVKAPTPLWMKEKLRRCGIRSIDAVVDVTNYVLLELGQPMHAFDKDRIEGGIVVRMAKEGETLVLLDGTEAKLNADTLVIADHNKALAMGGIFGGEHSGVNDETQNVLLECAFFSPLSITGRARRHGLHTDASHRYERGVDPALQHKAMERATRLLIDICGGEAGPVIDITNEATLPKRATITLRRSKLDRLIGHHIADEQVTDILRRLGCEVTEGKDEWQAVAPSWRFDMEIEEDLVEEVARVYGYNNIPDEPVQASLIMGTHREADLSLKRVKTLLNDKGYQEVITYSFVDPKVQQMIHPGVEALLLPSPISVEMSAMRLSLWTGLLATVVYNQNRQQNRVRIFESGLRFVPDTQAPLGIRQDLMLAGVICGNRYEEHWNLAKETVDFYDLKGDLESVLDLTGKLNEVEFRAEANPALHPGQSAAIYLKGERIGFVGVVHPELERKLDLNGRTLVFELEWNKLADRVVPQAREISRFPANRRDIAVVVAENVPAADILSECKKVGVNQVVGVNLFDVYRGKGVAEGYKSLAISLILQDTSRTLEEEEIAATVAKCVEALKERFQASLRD

PheT KV = molecular target: T2, PheT KV (E. coli, UniProt P07395 1-795); assay: IMAC co-purification after cell-free co-synthesis of PheS(A294G) and PheT variant
T2 construct: also called PheT R794K A15V
T2 sequence: T1 sequence with A15V, R794K

PheT K = molecular target: T3, PheT K (E. coli, UniProt P07395 1-795); assay: as above
T3 construct: also called PheT R794K
T3 sequence: T1 sequence with R794K

PheT AP = molecular target: T4, PheT AP (E. coli, UniProt P07395 1-795); assay: as above
T4 construct: also called PheT R794A A791P
T4 sequence: T1 sequence with A791P, R794A

PheT MP = molecular target: T5, PheT MP (E. coli, UniProt P07395 1-795); assay: as above
T5 construct: also called PheT R794M R788P
T5 sequence: T1 sequence with R788P, R794M

Measured: binding result

B1: 6X His-tagged E. coli PheS(A294G) subunit of phenylalanyl-tRNA synthetase (enzyme)
chain: MSHLAELVASAKAAISQASDVAALDNVRVEYLGKKGHLTLQMTTLRELPPEERPAAGAVINEAKEQVQQALNARKAELESAALNARLAAETIDVSLPGRRIENGGLHPVTRTIDRIESFFGELGFTVATGPEIEDDYHNFDALNIPGHHPARADHDTFWFDTTRLLRTQTSGVQIRTMKAQQPPIRIIAPGRVYRNDYDQTHTPMFHQMEGLIVDTNISFTNLKGTLHDFLRNFFEEDLQIRFRPSYFPFTEPSAEVDVMGKNGKWLEVLGCGMVHPNVLRNVGIDPEVYSGFGFGMGMERLTMLRYGVTDLRSFFENDLRFLKQFK
notes: also called 6XHisPheS(A294G); PheS(A294G) domain
binds: all assays above
